Assay results: PMC9486944, “Structurally Informed Mutagenesis of a Stereochemically Promiscuous Aldolase Produces Mutants That Catalyze the Diastereoselective Syntheses of All Four Stereoisomers of 3-Deoxy-hexulosonic Acid” (ACS Catalysis, 2022)

Key:
SsKDG-aldolase = molecular target: T1, SsKDG-aldolase (Saccharolobus solfataricus, UniProt O54288, T157V/A198L); test: X-ray crystal structure; type: binding; settings: Variant 3; 2 min soak in 30 mM ligand; active site, covalent (Lys155 Schiff base)
T1 construct: full length, pET-3a in E. coli BL21 (DE3); heat treatment, anion exchange, gel filtration; no tag mentioned; 293 C-alpha positions; tetramer
Excerpt: X-ray crystal structure on SsKDG-aldolase | which enabled us to determine the structure of the […] complex

[1] = molecular target: SsKDG-aldolase Variant 2 (T157V/D181Q/A198L) (Sulfolobus solfataricus); test: crystal structure; hanging-drop vapor diffusion at 18 °C; 11–15% PEG4K, 4–12% isopropanol, 0.1 M HEPES pH 5.9–6.8; unsoaked crystals, crystals soaked in 30 mM 3-deoxy-hexulosonic acid, Variant 2 also cocrystallized with 100 mM pyruvate
purified protein [2] = substrate: O=C[C@@H](O)CO; test: purified protein; settings: 50 mM sodium phosphate pH 6.0, 70 °C
purified protein [3] = substrate: O=C[C@H](O)CO; test: purified protein; settings: 50 mM sodium phosphate pH 6.0, 70 °C
[4] = substrate: CC(=O)C(=O)O; test: thiobarbituric acid assay of aldol product; type: biochemical, Saccharolobus solfataricus; settings: 50 mM sodium phosphate pH 6.0, 70 °C
Excerpt: thiobarbituric acid assay of aldol product on SsKDG-aldolase

[5] = Variant 3, near-saturating pyruvate
[6] = Variant 3, near-saturating D-glyceraldehyde
[7] = Variant 4, near-saturating pyruvate
[8] = Variant 4, near-saturating D-glyceraldehyde

With `O=C(O)C(=O)C[C@@H](O)[C@@H](O)CO` [L-KDGlc] as the molecule, how does the X-ray crystal structure (SsKDG-aldolase) read?
Its X-ray crystal structure is “which enabled us to determine the structure of the L-KDGlc complex”.

Which stoichiometry N [1] does the source give for “SsKDG-aldolase Variant 2 (T157V/D181Q/A198L) (enzyme)” here?
The stoichiometry N was 4.

B1: SsKDG-aldolase (Saccharolobus solfataricus; A198L/T157V) (protein)
chain: PEIITPIITPFTKDNRIDKEKLKIHAENLIRKGIDKLFVNGTTGLGPSLSPEEKLENLKAVYDVTNKIIFQVGGLNLDDAIRLAKLSKDFDIVGIASYAPYYYPRMSEKHLVKYFKTLCEVSPHPVYLYNYPTATGKDIDAKVAKEIGCFTGVKDVIENIIHTLDYKRLNPNMLVYSGSDMLIATVASTGLDGNVALGSNYLPEVTVTIKKLAMERKIDEALKLQFLHDEVIEASRIFGSLSSNYVLTKYFQGYDLGYPRPPIFPLDDEEERQLIKKVEGIRAKLVELKILKE
notes: full length, pET-3a in E. coli BL21 (DE3); heat treatment, anion exchange, gel filtration; no tag mentioned; 293 C-alpha positions; tetramer
Which results are given for B1?
Km (purified protein [2]; [5]): 37.6 (±0.2) mM; Vmax (purified protein [2]; [5]): 6.1 µmol/min/mg; Km (purified protein [3]; [5]): 19.5 (±0.2) mM; Vmax (purified protein [3]; [5]): 1.8 µmol/min/mg; Km [4, 6]: 2.9 (±0.1) mM; Vmax [4, 6]: 1.7 µmol/min/mg

B2: SsKDG-aldolase (Saccharolobus solfataricus; A198F/Y103F/Y130F) (protein)
chain: PEIITPIITPFTKDNRIDKEKLKIHAENLIRKGIDKLFVNGTTGLGPSLSPEEKLENLKAVYDVTNKIIFQVGGLNLDDAIRLAKLSKDFDIVGIASYAPYFYPRMSEKHLVKYFKTLCEVSPHPVYLFNYPTATGKDIDAKVAKEIGCFTGVKDTIENIIHTLDYKRLNPNMLVYSGSDMLIATVASTGLDGNVAFGSNYLPEVTVTIKKLAMERKIDEALKLQFLHDEVIEASRIFGSLSSNYVLTKYFQGYDLGYPRPPIFPLDDEEERQLIKKVEGIRAKLVELKILKE
notes: as for B1
With B2 as the molecule, how does the Km (purified protein [2]; [7]) read?
Its Km is 6.3 (±0.18) mM.

What about the Vmax (purified protein [2]; [7]) of the same molecule?
The Vmax was 0.06 µmol/min/mg.

And the Km (purified protein [3]; [7])?
Its Km is 6.9 (±0.2) mM.

What about the Vmax (purified protein [3]; [7]) of the same molecule?
The Vmax was 0.11 µmol/min/mg.

And the Km [4, 8]?
The Km was 0.3 (±0.04) mM.

What about the Vmax [4, 8] of the same molecule?
Its Vmax is 0.09 µmol/min/mg.
